From patent publication US8653242B2, “Therapeutic antibodies against flagellated Pseudomonas aeruginosa” (priority 2010, dated 2014)

B1: LST-003 (antibody, V domains shown)
VH: MMVLSLLYLLTAIPGILSDVQLQESGPGLVKPSQSLSLPCSVTGYSITSGYYWNWIRQFPGNKLEWMGYIRYDGNNNYNPSLKNRISITHDTSKNQFFLKLNYVTTEDTATYYCARGLQFYFDSWGQGTTLTVSS
VL: MVLILLLLWVSGTCGDIVMSQSPSSLAVSGGEKVTMSCKSSQSLLNGSYQKHTLAWYQQKPGQSPKLLIYWASTRESGVPDRFTGSGSGTDFTLTISSVKAEDLAVYYCQQYYSYPWTFGGGTKLEIKR
modifications: human IgG1 constant domains lacking entries
B2: LST-004 (antibody, V domains shown)
VH: MNFGLSLVFLVLILKGVQCEVMLVESGGGLVKPGGSLKLSCAASGFTFSTFTMSWVRQTPEKRLECVATINGGGGNTYYPDSVKGRFTISRDNAKNNLYLQMSSLRSEDTAFYFCSRLYGIYAMDYWGQGTSVTVSS
VL: MKSHTQVFVYMLLWLSGVEGDIVMTQSHIFMSTSVGDRVSITCKASQDVGSAVAWYQQKPGQSPKVLIYWTSTRHTGVPDRFAGSGSGTEFTLTISNVQSEDLADYFCQQYSSYPLTFGAGTKLELKR
modifications: human IgG1 constant domains lacking entries

How the values were obtained:
[1] = system: Ka02 (flagellin type B); experiment: ELISA on formaldehyde-fixed Ka02; type: binding, P. aeruginosa; conditions: fixed whole bacteria ELISA, 1 nM mAb
Protocol: (§1) From a single fresh bacterial colony, PA strains 27853 (harboring flagellin type A) or Ka02 (harboring flagellin type B) were grown overnight in 5 ml LB at 37° C. Thereafter, bacterial cultures were centrifuged at 1500 g for 30 min and following removal of the clear supernatant, pellets were washed twice with 20 ml PBS with intervening centrifugation. The final pellet was resuspended in a volume of PBS (˜10 ml) and adjusted to generate an OD600 of ˜0.2 and maintained on ice prior to coating on ELISA plates which were prepared as follows: to the wells of flat-bottomed ELISA plates (Nunc, cat #442404), 50 μl poly-L-lysine (PLL, Sigma Cat # P-1524) of a 1 μg/ml solution was added and plates were incubated for 30 min at room temperature. Thereafter, non-adsorbed PLL was removed. Fifty μl of the appropriate bacterial suspensions from the different strains at 0.2 OD600 nm were added to the PLL-coated ELISA plates. In some wells, a “mixed-bacterial population” was added. To that end, 25 μl of PA 27853 and 25 μl of Ka02 bacterial suspensions were added to the same wells. […]
(§2) ELISA plates containing the fixed P. aeruginosa bacteria, were blocked by adding 200 μl PBS-10% FBS for 60 min at room temperature. […] Thereafter, signal was quenched with 50 μA 10% H2SO4 and plates read at 450 nm in a Microtiter plate reader (Anthos MultiRead 400).

[2] = target: T1, flagellin type B strains (PA21 and PA01) (Pseudomonas aeruginosa, UniProt P72151); experiment: Western blot of P. aeruginosa lysates, flagellin type B strains; type: binding; conditions: mAb 10 μg/ml
T1 construct: a panel of blotted P. aeruginosa lysates of type A or B flagellin; endogenous in cells; host or cells: P. aeruginosa strains PA21 (MDR isolate) and PA01 (laboratory strain)
T1 sequence (P72151 whole entry): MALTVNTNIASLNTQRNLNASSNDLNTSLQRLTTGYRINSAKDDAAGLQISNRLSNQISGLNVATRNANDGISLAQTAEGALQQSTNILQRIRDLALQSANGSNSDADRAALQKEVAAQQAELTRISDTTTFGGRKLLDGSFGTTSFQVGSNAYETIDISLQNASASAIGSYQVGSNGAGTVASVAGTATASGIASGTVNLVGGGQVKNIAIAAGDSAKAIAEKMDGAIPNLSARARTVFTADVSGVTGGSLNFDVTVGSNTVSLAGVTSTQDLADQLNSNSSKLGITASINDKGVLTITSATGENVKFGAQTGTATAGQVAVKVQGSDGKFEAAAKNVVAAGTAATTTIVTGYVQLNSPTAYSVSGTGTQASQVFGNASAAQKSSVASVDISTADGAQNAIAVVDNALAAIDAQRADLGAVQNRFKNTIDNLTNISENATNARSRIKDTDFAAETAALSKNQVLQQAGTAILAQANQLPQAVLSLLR
Protocol: (§3) The binding specificity of the chimeric LST-003 mAb was assessed in a western blot experiment as compared to the parental mouse LST-001 mAb. Two identical, yet separate nitrocellulose membranes containing a panel of blotted P. aeruginosa lysates of type A or B flagellin following electrophoresis were hybridized with either mouse LST-001 (FIG. 5A) or chimeric LST-003 (FIG. 5B) mAbs at identical final concentrations (10 μg/ml) with the ensuing detecting secondary peroxidase-conjugated antibodies being anti-mouse Fc or anti-human Fc respectively. Laboratory strains PAK (type A flagellin) or PA01 (type B flagellin) were included as appropriate controls whereas other strains represented multi-drug resistant (MDR) P. aeruginosa strains. […] FIG. 6 also depicts binding of LST-001, LST-002 and LST-003 to immobilized, whole P. aeruginosa as measured in an ELISA and confirms the western blot findings. See below in Example 7 for the ELISA protocol.

[3] = system: mixed PA27853 and Ka02 bacteria; experiment: ELISA on mixed fixed bacteria; type: binding, P. aeruginosa; conditions: 1 nM mAb; wells coated with half the amount of each strain
Protocol: as §1
ELISA plates containing the fixed P. aeruginosa bacteria, were blocked by adding 200 μl PBS-10% FBS for 60 min at room temperature. […] Thereafter, signal was quenched with 50 μA 10% H2SO4 and plates read at 450 nm in a Microtiter plate reader (Anthos MultiRead 400). […]

[4] = target: P. aeruginosa flagellin type A (Pseudomonas aeruginosa, UniProt P21184); experiment: ELISA of LST-009 on recombinant flagellin type A; type: binding; conditions: 250 ng/well antigen
Sequence of P. aeruginosa flagellin type A (P21184 whole entry): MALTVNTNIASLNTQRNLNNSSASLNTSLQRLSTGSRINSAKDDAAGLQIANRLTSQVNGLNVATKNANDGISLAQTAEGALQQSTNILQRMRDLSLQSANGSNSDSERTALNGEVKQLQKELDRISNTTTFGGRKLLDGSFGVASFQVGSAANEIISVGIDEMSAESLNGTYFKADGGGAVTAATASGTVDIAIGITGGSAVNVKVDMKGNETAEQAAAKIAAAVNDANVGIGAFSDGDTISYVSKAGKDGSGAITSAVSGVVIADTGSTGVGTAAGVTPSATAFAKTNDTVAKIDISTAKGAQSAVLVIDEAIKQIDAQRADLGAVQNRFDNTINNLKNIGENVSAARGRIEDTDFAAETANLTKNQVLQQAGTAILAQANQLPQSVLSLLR
Protocol: (§4) Two hundred and fifty ng (250 ng) of P. aeruginosa flagellin type A or B (50 μl from 5 μg/ml) were dispensed into each well of ELISA plates (Nunc, cat #442404) and coating allowed to proceed for 2 hours at room temperature with gentle shaking. Plates were then blocked with 200 μl PBS-10% fetal bovine serum (FBS) overnight at 4° C.
(§5) To that end, following three washes with PBS-0.05% Tween-20, 50 μl of a goat anti-human IgG (Fc)-HRP (Cat # A80-104P; Bethyl, Tex., USA) was added at a dilution of 1:10,000 in PBS-10% FBS with incubation allowed to proceed for 60 min at room temperature. Following 3 separate washes with PBS-Tween-20 (0.05%) and gentle tapping of plates on paper towels to remove final traces of wash buffer, 50 μl TMB/E substrate solution (Cat #ES001-500 ml; Millipore) was added for 15 min at room temperature. Thereafter, signal was quenched with 50 μl 10% H2SO4 and plates read at 450 nm in a Microtiter plate reader (Anthos MultiRead 400).

[5] = system: flagellin type A strains (PA141, PA49, PA1, PA409 and PAK); experiment: Western blot of P. aeruginosa lysates, flagellin type A strains; type: binding; conditions: mAb 10 μg/ml
Protocol: as §3

[6] = system: PA27853 (flagellin type A); experiment: ELISA on formaldehyde-fixed PA27853; type: binding, P. aeruginosa; conditions: fixed whole bacteria ELISA, 1 nM mAb
Protocol: as §1, §2

[7] = target: P. aeruginosa flagellin type B (Pseudomonas aeruginosa, UniProt P72151); experiment: ELISA of LST-009 on recombinant flagellin type B; type: binding; conditions: 250 ng/well antigen
Sequence of P. aeruginosa flagellin type B (P72151 whole entry): as the sequence (P72151 whole entry) above
Protocol: as §4, §5

| Molecule | binding to Ka02 [1] | immunoblot reactivity to flagellin type B strains [2] | OD as compared to FIG. 16 (full amount of bacteria) [3] | EC50 towards P. aeruginosa flagellin type A [4] | immunoblot reactivity to flagellin type A strains [5] | binding to PA27853 [6] | EC50 towards P. aeruginosa flagellin type B [7] |
| --- | --- | --- | --- | --- | --- | --- | --- |
| B1 | failed to bind Ka02 | not flagellin type B | approximately 50% | approximately 65 ng/ml | stronger binding | – | – |
| B2 | – | – | approximately 50% | – | – | minimal signal | approximately 300 ng/ml |
